The numbers were not newly measured in patent publication US20210265014A1, “METHOD AND ELECTRONIC SYSTEM FOR PREDICTING AT LEAST ONE FITNESS VALUE OF A PROTEIN VIA AN EXTENDED NUMERICAL SEQUENCE, RELATED COMPUTER PROGRAM PRODUCT” (PEACCEL, priority 2018, published 2021), which cites them from elsewhere.

This data set addresses T1, Glucagon like peptide-2 (GLP-2) receptor (Rattus norvegicus, UniProt Q9Z0W0).
T1 sequence (Q9Z0W0 1-550): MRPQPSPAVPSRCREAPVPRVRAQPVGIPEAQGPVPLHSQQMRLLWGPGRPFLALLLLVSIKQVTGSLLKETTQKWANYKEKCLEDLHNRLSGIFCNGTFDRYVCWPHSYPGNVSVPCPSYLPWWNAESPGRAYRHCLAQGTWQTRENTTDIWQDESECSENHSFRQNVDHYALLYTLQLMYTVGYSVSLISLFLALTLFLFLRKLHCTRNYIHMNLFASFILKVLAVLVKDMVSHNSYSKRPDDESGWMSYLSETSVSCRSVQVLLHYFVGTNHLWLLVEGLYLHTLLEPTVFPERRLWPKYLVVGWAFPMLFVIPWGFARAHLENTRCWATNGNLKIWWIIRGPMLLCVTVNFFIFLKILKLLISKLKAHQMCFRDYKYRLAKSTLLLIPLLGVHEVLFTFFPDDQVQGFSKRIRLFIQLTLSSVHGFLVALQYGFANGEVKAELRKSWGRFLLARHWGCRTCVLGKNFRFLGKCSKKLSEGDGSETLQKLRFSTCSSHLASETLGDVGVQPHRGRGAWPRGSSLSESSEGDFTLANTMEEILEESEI
The note with it: receptor activation, fold increase over basal cAMP production. In general terms: Changes in cAMP serve as a functional read-out for many G protein-coupled receptors.

As to “R20A: alanine variant of Glucagon like peptide-2 (GLP-2) (HADGSFSDEMNTILDNLAAADFINWLIQTKITD; Glucagon-like peptide 2; UniProt P01275 146-178, looked up, variant R20A) [Chimera R20A]”, the “fold-increase in cAMP” value is recorded as 3.94 fold. For the substance “D21A: alanine variant of Glucagon like peptide-2 (GLP-2) (HADGSFSDEMNTILDNLAARAFINWLIQTKITD; Glucagon-like peptide 2; UniProt P01275 146-178, looked up, variant D21A) [Chimera D21A]”, the “fold-increase in cAMP” value is given as 4.42 fold. In the case of “N11A: alanine variant of Glucagon like peptide-2 (GLP-2) (HADGSFSDEMATILDNLAARDFINWLIQTKITD; Glucagon-like peptide 2; UniProt P01275 146-178, looked up, variant N11A) [Chimera N11A]”, the “fold-increase in cAMP” value is 7.65 fold.

As to “F22A: alanine variant of Glucagon like peptide-2 (GLP-2) (HADGSFSDEMNTILDNLAARDAINWLIQTKITD; Glucagon-like peptide 2; UniProt P01275 146-178, looked up, variant F22A) [Chimera F22A]”, the “fold-increase in cAMP” value was 1.61 fold. On to “H1A: alanine variant of Glucagon like peptide-2 (GLP-2) (AADGSFSDEMNTILDNLAARDFINWLIQTKITD; Glucagon-like peptide 2; UniProt P01275 146-178, looked up, variant H1A) [Chimera H1A]”, for which the “fold-increase in cAMP” value is recorded as 0.78 fold. For the substance “T12A: alanine variant of Glucagon like peptide-2 (GLP-2) (HADGSFSDEMNAILDNLAARDFINWLIQTKITD; Glucagon-like peptide 2; UniProt P01275 146-178, looked up, variant T12A) [Chimera T12A]”, the “fold-increase in cAMP” value is given as 3.11 fold. Consider “I13A: alanine variant of Glucagon like peptide-2 (GLP-2) (HADGSFSDEMNTALDNLAARDFINWLIQTKITD; Glucagon-like peptide 2; UniProt P01275 146-178, looked up, variant I13A) [Chimera I13A]”, for which the “fold-increase in cAMP” value is listed as 2.45 fold.

In the case of “D3A: alanine variant of Glucagon like peptide-2 (GLP-2) (HAAGSFSDEMNTILDNLAARDFINWLIQTKITD; Glucagon-like peptide 2; UniProt P01275 146-178, looked up, variant D3A) [Chimera D3A]”, the “fold-increase in cAMP” value is on record as 1.02 fold. As for “I23A: alanine variant of Glucagon like peptide-2 (GLP-2) (HADGSFSDEMNTILDNLAARDFANWLIQTKITD; Glucagon-like peptide 2; UniProt P01275 146-178, looked up, variant I23A) [Chimera I23A]”, the “fold-increase in cAMP” value was 2.57 fold. As for “L14A: alanine variant of Glucagon like peptide-2 (GLP-2) (HADGSFSDEMNTIADNLAARDFINWLIQTKITD; Glucagon-like peptide 2; UniProt P01275 146-178, looked up, variant L14A) [Chimera L14A]”, the “fold-increase in cAMP” value was 2.03 fold. Take “N16A: alanine variant of Glucagon like peptide-2 (GLP-2) (HADGSFSDEMNTILDALAARDFINWLIQTKITD; Glucagon-like peptide 2; UniProt P01275 146-178, looked up, variant N16A) [Chimera N16A]”: the “fold-increase in cAMP” value was 5.92 fold. As for “T32A: alanine variant of Glucagon like peptide-2 (GLP-2) (HADGSFSDEMNTILDNLAARDFINWLIQTKIAD; Glucagon-like peptide 2; UniProt P01275 146-178, looked up, variant T32A) [Chimera T32A]”, the “fold-increase in cAMP” value is 0.84 fold. Consider “L17A: alanine variant of Glucagon like peptide-2 (GLP-2) (HADGSFSDEMNTILDNAAARDFINWLIQTKITD; Glucagon-like peptide 2; UniProt P01275 146-178, looked up, variant L17A) [Chimera L17A]”, for which the “fold-increase in cAMP” value was 1.02 fold.

In the case of “D33A: alanine variant of Glucagon like peptide-2 (GLP-2) (HADGSFSDEMNTILDNLAARDFINWLIQTKITA; Glucagon-like peptide 2; UniProt P01275 146-178, looked up, variant D33A) [Chimera D33A]”, the “fold-increase in cAMP” value is listed as 3.41 fold. For the substance “E9A: alanine variant of Glucagon like peptide-2 (GLP-2) (HADGSFSDAMNTILDNLAARDFINWLIQTKITD; Glucagon-like peptide 2; UniProt P01275 146-178, looked up, variant E9A) [Chimera E9A]”, the “fold-increase in cAMP” value is on record as 3.76 fold. In the case of “F6A: alanine variant of Glucagon like peptide-2 (GLP-2) (HADGSASDEMNTILDNLAARDFINWLIQTKITD; Glucagon-like peptide 2; UniProt P01275 146-178, looked up, variant F6A) [Chimera F6A]”, the “fold-increase in cAMP” value is 1.67 fold.

Turning to “Q28A: alanine variant of Glucagon like peptide-2 (GLP-2) (HADGSFSDEMNTILDNLAARDFINWLIATKITD; Glucagon-like peptide 2; UniProt P01275 146-178, looked up, variant Q28A) [Chimera Q28A]”, the “fold-increase in cAMP” value is listed as 5.80 fold. Take “A2G: variant of Glucagon like peptide-2 (GLP-2) [Chimera A2G]”: the “fold-increase in cAMP” value is 10.00 fold. Consider “T29A: alanine variant of Glucagon like peptide-2 (GLP-2) (HADGSFSDEMNTILDNLAARDFINWLIQAKITD; Glucagon-like peptide 2; UniProt P01275 146-178, looked up, variant T29A) [Chimera T29A]”, for which the “fold-increase in cAMP” value is recorded as 4.78 fold. Turning to “I27A: alanine variant of Glucagon like peptide-2 (GLP-2) (HADGSFSDEMNTILDNLAARDFINWLAQTKITD; Glucagon-like peptide 2; UniProt P01275 146-178, looked up, variant I27A) [Chimera I27A]”, the “fold-increase in cAMP” value is given as 5.02 fold.

Regarding “W25A: alanine variant of Glucagon like peptide-2 (GLP-2) (HADGSFSDEMNTILDNLAARDFINALIQTKITD; Glucagon-like peptide 2; UniProt P01275 146-178, looked up, variant W25A) [Chimera W25A]”, the “fold-increase in cAMP” value is on record as 1.37 fold. For the substance “D8A: alanine variant of Glucagon like peptide-2 (GLP-2) (HADGSFSAEMNTILDNLAARDFINWLIQTKITD; Glucagon-like peptide 2; UniProt P01275 146-178, looked up, variant D8A) [Chimera D8A]”, the “fold-increase in cAMP” value is 7.53 fold. As for “S5A: alanine variant of Glucagon like peptide-2 (GLP-2) (HADGAFSDEMNTILDNLAARDFINWLIQTKITD; Glucagon-like peptide 2; UniProt P01275 146-178, looked up, variant S5A) [Chimera S5A]”, the “fold-increase in cAMP” value is 4.00 fold. For “M10A: alanine variant of Glucagon like peptide-2 (GLP-2) (HADGSFSDEANTILDNLAARDFINWLIQTKITD; Glucagon-like peptide 2; UniProt P01275 146-178, looked up, variant M10A) [Chimera M10A]”, the “fold-increase in cAMP” value was 0.78 fold. For the substance “K30A: alanine variant of Glucagon like peptide-2 (GLP-2) (HADGSFSDEMNTILDNLAARDFINWLIQTAITD; Glucagon-like peptide 2; UniProt P01275 146-178, looked up, variant K30A) [Chimera K30A]”, the “fold-increase in cAMP” value was 0.84 fold. As to “S7A: alanine variant of Glucagon like peptide-2 (GLP-2) (HADGSFADEMNTILDNLAARDFINWLIQTKITD; Glucagon-like peptide 2; UniProt P01275 146-178, looked up, variant S7A) [Chimera S7A]”, the “fold-increase in cAMP” value is given as 7.59 fold. For the substance “D15A: alanine variant of Glucagon like peptide-2 (GLP-2) (HADGSFSDEMNTILANLAARDFINWLIQTKITD; Glucagon-like peptide 2; UniProt P01275 146-178, looked up, variant D15A) [Chimera D15A]”, the “fold-increase in cAMP” value is reported as 4.54 fold.

Consider “N24A: alanine variant of Glucagon like peptide-2 (GLP-2) (HADGSFSDEMNTILDNLAARDFIAWLIQTKITD; Glucagon-like peptide 2; UniProt P01275 146-178, looked up, variant N24A) [Chimera N24A]”, for which the “fold-increase in cAMP” value is reported as 10.00 fold. With “G4A: alanine variant of Glucagon like peptide-2 (GLP-2) (HADASFSDEMNTILDNLAARDFINWLIQTKITD; Glucagon-like peptide 2; UniProt P01275 146-178, looked up, variant G4A) [Chimera G4A]”, the “fold-increase in cAMP” value is on record as 2.87 fold.
